The data set is described as follows: yeast display, Sf9 membrane polyspecificity reagent, FACS + sequencing; frameworks hold sequencing errors. Summed up: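 Nanobodies came from a synthetic yeast display library in Saccharomyces cerevisiae BJ5465, induced with galactose for 36–48 hours and stained for 1 hour at 4 °C with 10% biotinylated, detergent-solubilized Sf9 membrane reagent. Cells were enriched on streptavidin microbeads and then FACS-sorted, with low and high (top ~1%) gates set on anti-HA fluorescence for expression and streptavidin fluorescence for reagent binding. Each polyreactivity label reflects the gate a clone came from. Genes were amplified by colony PCR, sequenced by MiSeq 2 × 250 and filtered by CDR length.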
For “QVQLVESGGGLVQAGGSLRLSCAASGFIFSANAMGWYRQAPGKERELVAAISSRGTSTYYADSVKGRFTISRDYAKNTVYLQMNSLKPEDTGVYFCAADYYQAGTYVWMDYWGQGTQVTVSS”, the “polyreactivity (PSR sort gate)” value is on record as “high polyreactivity”. Consider “QVQLVESGGGLVQAGGSLRLSCAASGFIFSGYAMGWYRQAPGKERELVAAIRWNGGRTYYADSVKGRFTISRDNAKNTVYLQMNSLKPEDTAVYYCAAGSGRDYGYRYFFWRYDYWGQGTQVTVSS”, for which the “polyreactivity (PSR sort gate)” value was “high polyreactivity”. With “QVQLVESGGGLVQAGGSLRLSCAASGFIFSGYTMGWYRQAPGKERELVAAITKRGGRTYYADSVKGRFTISRDNAKNTVYLQMNSLKPEDTAVYYCNVDVKVYSDETTDGDYWGQGTQVTVSS”, the “polyreactivity (PSR sort gate)” value was “high polyreactivity”.

Regarding “QVQLVESGGGLVQAGGSLRLSCAASGFIFSIYAMGWYRQAPGKERELVAAISGTGSTSYADSVKGRFTISRDNAKNTVYLQMNSLKPEDTAVYYCAKDGPGRLGDDYWGQGTQVTVSS”, the “polyreactivity (PSR sort gate)” value is “low polyreactivity”. As for “QVQLVESGGGLVQAGGSLRLSCAASGFIFSIYAMGWYRQAPGKERELVATITYSGGSTYYADSVKGRFTISRDNAKNTVYLQMNSLKPEDTAVYYCNALSKGYYTIGGYSWGQGTQVTVSS”, the entry is “low polyreactivity”; as for “QVQLVESGGGLVQAGGSLRLSCAASGFIFSLYAMGWYRQAPGKERELVAAISRSDDRTYYADSVKGRFTISRDDAKNTVYLQMNSLKPEDTAVYYCNVRYSYILIYEYWGQGTQVTVSS”, “low polyreactivity”. Regarding “QVQLVESGGGLVQAGGSLRLSCAASGFIFSLYAMGWYRQAPGKERELVAVITWSDGRTYYADSVKGRFTISRDNAKNTVYLQMNSLKPEDTAVYYCAAADWITEYDYWGQGTQVTVSS”, the “polyreactivity (PSR sort gate)” value is reported as “low polyreactivity”. As for “QVQLVESGGGLVQAGGSLRLSCAASGFIFSPNALGWYRPAPGKEREFVAAIRYSGTSTSYADSVKGRFTISRDNAKNTVYLQMNSLKPEDTAVYYCNAQWRFSRGYTYNYWGQGTQVTVSS”, the entry is “high polyreactivity”; as for “QVQLVESGGGLVQAGGSLRLSCAASGFIFSPNAMGWYRQAPGKEREFVAAIRYSGTSTSYADSVKGRFTISRDNAKNTVYLQMNSLKPEDTAVDYCAAQSRQRTGMYYWGQGTQVTVSS”, “high polyreactivity”; as for “QVQLVESGGGLVQAGGSLRLSCAASGFIFSRNALGWYRQAPGKERELVAVISTRGGSTYYADSVKGRFTISRDNAKNTVYLQMNSLKPEDTAVYYCAARRTRGYEYWGQGTQVTVSS”, “high polyreactivity”. Consider “QVQLVESGGGLVQAGGSLRLSCAASGFIFSRNAMGWYRQAPGKERELVAAISAGGGSTYYADSVKGRFTISLDNAKYTVYLQMNSLKPEDSAVYSCAAYFRSQFGYWGQGTEVTVSS”, for which the “polyreactivity (PSR sort gate)” value was “high polyreactivity”.

Regarding “QVQLVESGGGLVQAGGSLRLSCAASGFIFSRYAMGCYRQSPGKERELVATIRRSGRTNYADSVKGRFTISRDNAKNTFYLQMNSLKPEDTAVYYCAKPGQWHRYHYGSWGQGTQVTVSS”, the “polyreactivity (PSR sort gate)” value is recorded as “low polyreactivity”.

Regarding “QVQLVESGGGLVQAGGSLRLSCAASGFIFSRYAMGWYRQAPGKERELVAAISWSGASTYYADSVKGRFTISRDNAKNTVYLQMNSLKPEDTAVYYCNAGYYRGEGFYTYDYWGQGTQVTVSS”, the “polyreactivity (PSR sort gate)” value is reported as “high polyreactivity”. The entry for “QVQLVESGGGLVQAGGSLRLSCAASGFIFSRYGMGWYRQAPGKERELVAAISRSGGSTYYADSVKGRFTISRDNAKNTVYLQMNSLKPEDTAVYYCATAYSWRNADRFAYSYDYWGQGTQVTVSS” is “low polyreactivity”; for “QVQLVESGGGLVQAGGSLRLSCAASGFIFSSYAMGWYRPAPGKERELVAAISKSGDRTSYADSVKGRFTISRDNAKNTVYLQMNSLKPEDTAVYYCNAKYWGYSHHVIWYDYWGQGTQVTVSS” it is “high polyreactivity”. As for “QVQLVESGGGLVQAGGSLRLSCAASGFIFSSYAMGWYRQAPGKERELVAAITSGGSTNYADSVKGRFTISRDNAKNTVYLQMNSLKPEDTAVYYCAADGVASLFGDPPTEFDYWGQGTQVTVSS”, the entry is “low polyreactivity”; as for “QVQLVESGGGLVQAGGSLRLSCAASGFIFSSYAMGWYRQAPGKERELVAAITSGGSTYYADSVKGRFTISRDNAKNTVYLQMNSLKPEDTAVYYCAADHWDGQYWFDYWGQGTQVTVSS”, “low polyreactivity”; as for “QVQLVESGGGLVQAGGSLRLSCAASGFIFSSYAMGWYSQAPGKERDLGAAISKSGDRTSYADSVKGRFTISRDNAKNTVYLQMNSLKPEDTAVYYCAKDRLYRTKKYRDMYYWGQGTQVTVSS”, “high polyreactivity”. The entry for “QVQLVESGGGLVQAGGSLRLSCAASGFIFSTNAMGWYRQAPGKERELVAAISASGGITYYADSVKGRFTISRDNAKNTVYLQMNSLKPEDTAVYYCAVYYYSPGNNIYGYWGQGTQVTVSS” is “high polyreactivity”; for “QVQLVESGGGLVQAGGSLRLSCAASGFIFSTNAMGWYRQAPGKERELVAVINGGGSTYYADSVKGRFTISRDNAKNTVYLQLNSLKPEDTAVYNCARKSWPKEGRVDPGYDYWGQGTQVTVSS” it is “low polyreactivity”; for “QVQLVESGGGLVQAGGSLRLSCAASGFIFSTYAMGWYRQAPGKERELVAAITRTGTRTYYADSVKGRFTISRDNAKNTVYLQMNSLKPEDTAVYYCAARAGGEAYGSRYGYWGQGTQVTVSS” it is “high polyreactivity”. Consider “QVQLVESGGGLVQAGGSLRLSCAASGFIFSTYAMGWYRQAPGKERELVASTSRRAGRTYYADSVKGRFTISRDNAKNTVYLQMNSLKPEDTAVYYCAAEARVGYHFQILDYWGQGTQVTVSS”, for which the “polyreactivity (PSR sort gate)” value is “high polyreactivity”.

“QVQLVESGGGLVQAGGSLRLSCAASGFIFSVNTMGWYRQAPGKERELVAAISSSSGRTYYADSVKGRFTISRDNAKNTVYLQMNSLKPEDTAVYYCAVLYRWFGAYETYDYLGQGTQVTVSS”: the “polyreactivity (PSR sort gate)” value is on record as “high polyreactivity”. As for “QVQLVESGGGLVQAGGSLRLSCAASGFIFSWYAMGWYRQAPGKERELVAAISASGTSTYYADSVKGRFTISRDNAKNTVYLQMNSLKPEDTAVYYCAAEFVTEYLYGFVYEYDSWGQGTQVTVSS”, the entry is “low polyreactivity”. As for “QVQLVESGGGLVQAGGSLRLSCAASGFIFSWYAMGWYRQAPGKERELVAAISKRGGSTYYADSVKGRFTISRDNAKNTVYLQMNSLKPEDTAVYYCAADRLPSGSLVEYWGQGTQVTVSS”, the entry is “high polyreactivity”. The entry for “QVQLVESGGGLVQAGGSLRLSCAASGFIFSYYAMGLYRQAPGKERELVAAINWTGGSTYYADSVKGRFTISRDNAKNTVYLQMNSLKPEDTAVYYCAADSHLRGRSEDYWGQGTQVTVSS” is “high polyreactivity”.

Turning to “QVQLVESGGGLVQAGGSLRLSCAASGFIFSYYAMGWYRQAPGKERELVAAISSSGSRTYYADSVKGRFTISRDNAKNTVYLQMNSLKPEDTAVYYCNARTTSGWGQGTQVTVSS”, the “polyreactivity (PSR sort gate)” value is “high polyreactivity”.

“QVQLVESGGGLVQAGGSLRLSCAASGFIFSYYAMGWYRQAPGKERELVAANSSSGGTTYADSVKGRFTISRDNAKNTVYLQMNSLKPEDTAVYYCARVQYWFYKPMYYWGQGTQVTVSS”: the “polyreactivity (PSR sort gate)” value was “high polyreactivity”.

Take “QVQLVESGGGLVQAGGSLRLSCAASGFIFSYYAMGWYRQAPGKERELVADISRGGSTYYADSVKGRFTISRDNAKNTVYLQMNSLKPEDTAVYYCNAYIRYVVNGYRVYSFDYWGQGTQVTVSS”: the “polyreactivity (PSR sort gate)” value was “high polyreactivity”. As for “QVQLVESGGGLVQAGGSLRLSCAASGFIFSYYAMGWYRQAPRKERELVAAISKRGGGTYYADSVKGRFTISRDNAKNTVYLQMNSLKPEDTAVYYCNKDGGYGTGSSREYDSWGQGTQVTVSS”, the entry is “high polyreactivity”; as for “QVQLVESGGGLVQAGGSLRLSCAASGFIFTDYAMGWYIQAPGKERELVAGISGSGGRTYYADSVKGRFTISRDNAKNTVYLQMNSLKPEDTAVYYCAARGVPWLWYFRGMYWGQGTQVTVSS”, “high polyreactivity”; as for “QVQLVESGGGLVQAGGSLRLSCAASGFIFTDYAMGWYRQAPGKEREFVAAIDWSGGNTYYADSVKGRFTISRDNAKNTVFLQMNSLKPEDSAVYYCAASGSAREYDYWGQGTQVTVSS”, “low polyreactivity”.

Take “QVQLVESGGGLVQAGGSLRLSCAASGFIFTFYAMGWYRQAPGKERELVAAISSSGGSTYYADSVKGRFTISRDNAKNTVYLQMNSLKPEDTAVYYCNAVRYHARSGWSDYWGQGTQVTVSS”: the “polyreactivity (PSR sort gate)” value was “high polyreactivity”. The entry for “QVQLVESGGGLVQAGGSLRLSCAASGFIFTHNAMGWYRQAPGKERELVAAISRSGGRTYYADSVKGRFTISRDNAKNTVYLQMNSLKPEDTAVYYCAKDAYVYGMGYWGQGTQVTVSS” is “high polyreactivity”; for “QVQLVESGGGLVQAGGSLRLSCAASGFIFTKNAIGWYRQAPGKERDLVDAISGTGGSTYYADSVKGRFTISRDNAKNTVYLKMNSLKPEDTAVYYCASRRYRLFSTGGQPGYYWGQGTQVTVSS” it is “high polyreactivity”; for “QVQLVESGGGLVQAGGSLRLSCAASGFIFTKYTMAWYRQAPGKERELVAAITGRGTSTSADSVKGRFTISRDNAKNTVYLQMNSLKPEDTAVYYCAAVGWFADFLFSDINGYYWGQGTQVTVSS” it is “low polyreactivity”.

With “QVQLVESGGGLVQAGGSLRLSCAASGFIFTLYAMGWYRQAPGKESELVASISSGGSTNYADSVKGRFTISRDNAKNTVYFQMNSLKPEDTAVYYCAAYYYFKSDRFSGRYGRYYWGQGTQVTVSS”, the “polyreactivity (PSR sort gate)” value is listed as “high polyreactivity”. As for “QVQLVESGGGLVQAGGSLRLSCAASGFIFTLYTMGWYRPAPGKERELVAAIDKKGSTYYADSVKGRFTISRDNAKNTVYLQMNSLKPEDTAVYYCAADDRYRGNREDYWGQGTQVTVSS”, the entry is “low polyreactivity”; as for “QVQLVESGGGLVQAGGSLRLSCAASGFIFTRYAMGWYRQAPGKERELVAAISASGGSTYYADSVKGRFTISRDNAKNTVYLQMNSLKPEDTAVYYCAAVPYRYTYDYWGQGTQVTVSS”, “high polyreactivity”. The entry for “QVQLVESGGGLVQAGGSLRLSCAASGFIFTRYAMGWYRQAPGKERELVAAITRSGGRTYYADSVKGRFTISRDNAKNTVYLQMNSLKPEDTAVYYCAAEGSVGLYGLIMHYWGQGTQVTVSS” is “high polyreactivity”.

(Values after the nanobody polyreactivity screen of Harvey et al. (2022).)
